Target: T1, CcpA-Ile19 (evolved, 445C1) (Lactococcus lactis MG1363 (evolved …, UniProt A2RJC5 1-332, M19I))
T1 sequence: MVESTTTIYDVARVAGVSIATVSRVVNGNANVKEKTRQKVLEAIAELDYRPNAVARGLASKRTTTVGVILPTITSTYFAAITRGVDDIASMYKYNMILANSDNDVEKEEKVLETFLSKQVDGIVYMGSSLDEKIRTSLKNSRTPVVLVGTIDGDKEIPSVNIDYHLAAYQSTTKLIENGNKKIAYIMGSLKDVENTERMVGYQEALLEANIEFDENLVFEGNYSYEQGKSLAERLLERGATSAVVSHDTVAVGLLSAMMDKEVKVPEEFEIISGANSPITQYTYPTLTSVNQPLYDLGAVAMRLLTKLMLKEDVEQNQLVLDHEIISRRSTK
Assay: EMSA; 100-800 nM CcpA, 4 nM DNA; affinity increased vs Met19, least pronounced; EMSA: 20 mM Tris-HCl pH 8, 100 mM KCl, 10 mM MgCl2, 1 mM EDTA, 1 mM DTT, 5% glycerol, 40 ug/ml BSA, 4 nM Cy3-DNA, 30 C 20 min; 7.5% native PAGE in TBE
Details: protein: recombinant; tags: N-terminal 6xHis (pQE30); chain copies: 2; label: 5'-Cy3 on (+) strand; blunt

B1: mtlD cre (dsDNA)
DNA 1: ACCACAATGTAAAAGCTTACAATTGCT
DNA 2: AGCAATTGTAAGCTTTTACATTGTGGT
B1: binds.

From article PMC6327505, “Adaption to glucose limitation is modulated by the pleotropic regulator CcpA, independent of selection pressure strength”
